Tests used:
[1] = molecular target: GST-Cul5(NTD)/HIS6-Rbx2/Cul(CTD) complex (mouse) (UniProt Q9D5V5); experiment: pull-down + SEC
[2] = molecular target: Cullin5/Rbx1 complex (mouse | not stated) (UniProt Q9D5V5); experiment: SEC
Sequence of Cullin5/Rbx1 complex (mouse | not stated) (Q9D5V5 1-384, chain 1 of 3): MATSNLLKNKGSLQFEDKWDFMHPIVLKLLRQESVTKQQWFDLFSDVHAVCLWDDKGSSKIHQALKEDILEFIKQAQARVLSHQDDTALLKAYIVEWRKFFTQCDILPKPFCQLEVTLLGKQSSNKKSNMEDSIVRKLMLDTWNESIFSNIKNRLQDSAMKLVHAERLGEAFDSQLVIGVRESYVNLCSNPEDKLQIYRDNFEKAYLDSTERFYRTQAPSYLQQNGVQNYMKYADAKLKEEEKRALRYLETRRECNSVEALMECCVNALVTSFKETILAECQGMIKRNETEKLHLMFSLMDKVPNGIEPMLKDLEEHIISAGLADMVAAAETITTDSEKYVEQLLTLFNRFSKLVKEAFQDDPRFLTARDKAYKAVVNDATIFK
Sequence of Cullin5/Rbx1 complex (mouse | not stated) (Q9D5V5 385-780, chain 2 of 3): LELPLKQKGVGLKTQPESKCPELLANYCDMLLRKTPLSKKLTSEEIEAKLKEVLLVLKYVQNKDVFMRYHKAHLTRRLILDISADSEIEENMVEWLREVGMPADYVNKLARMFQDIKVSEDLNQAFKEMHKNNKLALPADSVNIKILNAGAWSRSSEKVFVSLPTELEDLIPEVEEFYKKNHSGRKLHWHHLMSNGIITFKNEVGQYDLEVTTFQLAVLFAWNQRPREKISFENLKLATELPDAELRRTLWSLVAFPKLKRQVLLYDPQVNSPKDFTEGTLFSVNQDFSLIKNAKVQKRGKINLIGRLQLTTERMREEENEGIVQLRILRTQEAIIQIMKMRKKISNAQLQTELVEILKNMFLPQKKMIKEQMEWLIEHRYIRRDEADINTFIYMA
Sequence of Cullin5/Rbx1 complex (mouse | not stated) (P62878 whole entry, chain 3 of 3, further chain): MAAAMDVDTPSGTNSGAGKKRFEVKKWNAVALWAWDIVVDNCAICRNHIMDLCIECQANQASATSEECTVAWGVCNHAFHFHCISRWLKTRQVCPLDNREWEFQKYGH

Sequence of Murine SOCS3/elonginsBC complex (O35718 22-225): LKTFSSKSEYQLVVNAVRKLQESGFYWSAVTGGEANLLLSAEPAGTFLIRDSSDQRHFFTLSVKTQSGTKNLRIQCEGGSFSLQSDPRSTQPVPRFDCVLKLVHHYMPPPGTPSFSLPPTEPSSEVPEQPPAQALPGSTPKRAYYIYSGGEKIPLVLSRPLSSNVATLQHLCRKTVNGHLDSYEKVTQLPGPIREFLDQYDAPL
Sequence of Murine SOCS3/elonginsBC complex (P62869 whole entry): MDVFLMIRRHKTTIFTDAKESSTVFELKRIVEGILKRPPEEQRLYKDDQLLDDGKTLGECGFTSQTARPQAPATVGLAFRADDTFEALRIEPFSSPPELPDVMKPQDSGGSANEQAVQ
Sequence of Murine SOCS3/elonginsBC complex (P83940 whole entry): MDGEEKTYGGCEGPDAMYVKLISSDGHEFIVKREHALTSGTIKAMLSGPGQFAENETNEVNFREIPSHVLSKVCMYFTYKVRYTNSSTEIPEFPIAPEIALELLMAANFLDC
Sequence of GST-Cul5(NTD)/HIS6-Rbx2/Cul(CTD) complex (mouse) (Q9D5V5 1-384, chain 1 of 3): as the sequence (Q9D5V5 1-384, chain 1 of 3) above
Sequence of GST-Cul5(NTD)/HIS6-Rbx2/Cul(CTD) complex (mouse) (Q9D5V5 385-780, chain 2 of 3): as the sequence (Q9D5V5 385-780, chain 2 of 3) above
Sequence of GST-Cul5(NTD)/HIS6-Rbx2/Cul(CTD) complex (mouse) (Q9WTZ1 whole entry, chain 3 of 3, further chain): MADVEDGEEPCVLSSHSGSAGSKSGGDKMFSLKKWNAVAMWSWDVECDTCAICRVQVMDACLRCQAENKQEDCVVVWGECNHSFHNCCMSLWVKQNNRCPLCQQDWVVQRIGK

## Murine SOCS3/elonginsBC complex (from UniProt O35718 22-225; P62869 1-118; P83940 1-112)
[1]
  stoichiometry N: 1
[2]
  stoichiometry N: 1
